Assay results published in the RNAGym collection of RNA variant scans (doi:10.1073/pnas.2313332121).
Fewer inactive variants are shown than the library holds.

B1: TPR 5TU (parent)
chain: GGAUCUUCUCGAUCUAACAAAAAAGACAAAUCUGCCACAAAGCUUGAGAGCAUCUUCGGAUGCAGAGGCGGCAGCCUUCGGUGGCGCGAUAGCGCCAACGUUCUCAACUAUGACACGCAAAACGCGUGCUCCGUUGAAUGGAGUUUAUCAUG

Variants of: B1
Assay: polymerase ribozyme fitness, log enrichment relative to wild type (log ratio); higher = more active; in vitro selection for triplet polymerase activity
Summary of the method: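 Each subunit of a heterodimeric triplet polymerase ribozyme was represented by a PCR-built, transcribed mutant library that underwent triplicate single-round in vitro selection with frozen incubation at −7 °C. Extended constructs were recovered by gel excision, streptavidin-bead capture and RT-PCR, and Illumina sequencing of input and output libraries kept genotypes with ≥10 input reads and ≥1 read per output. Fitness is the logarithm of genotype enrichment relative to wild-type enrichment, from inverse-variance-weighted replicate averages, with a logarithm base of 2.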

| Variant | polymerase ribozyme fitness (log ratio) |
| --- | --- |
| C35G A37C A52G G86U A97G | -4.2 |
| U31A U55A C95U G128U A137C G143U | ≤ -4.2 |
| C35G G58A G59U A60U A73C C116G C123A G140C | ≤ -4.2 |
| C35U C54G C85A | -3.81 |
| U31G G84A A89G | -0.747 |
| U33G A49U A91G G152A | ≤ -4.2 |
| C32U C87G A142U | ≤ -4.2 |
| U33A G50C U56A C76A G81C | ≤ -4.2 |
| U31C U45A G70C G92C | ≤ -4.2 |
| U33G A41C C43U G50A G152U | -4.07 |
| U31C C35U A41G C54U G86C | -2.75 |
| U31C U55A A97G | 1.27 |
| C35G G94C U101C A115C | ≤ -4.2 |
| U31A A97U | -0.316 |
| U33A U45A G68U C87A U127C A137U | ≤ -4.2 |
| U31C C93G | -3.06 |
| C32G A39G G58U G143C | -4.1 |
| U31C C93U A120G | 0.174 |
| C35U A41C U56A C76U G88U C105U | ≤ -4.2 |
| U31C C51A C69U G81A A91U G124A U144G | ≤ -4.2 |
| C32G U33A C43G G81U G84A A142G | ≤ -4.2 |

| Variant | polymerase ribozyme fitness (log ratio) |
| --- | --- |
| U33C U56G C93U | ≤ -4.2 |
| G34A A120C | 0.113 |
| C35G G58C G92U C125G A150U | ≤ -4.2 |
| C35G G50C U56A A64U G133C U148G | ≤ -4.2 |
| C35G U55A G58A G86U A147U | -4.06 |
| C32G G50U C79G G88U G94C U101C C125A | ≤ -4.2 |
| U33G A39G G62U G92A A122U U134A | ≤ -4.2 |
| C35A G86U C87G A97U C105U A119U A150C | ≤ -4.2 |
| C35A A91G C105U | -4.17 |
| C35G G74A U90A C95U | ≤ -4.2 |
| U33G G80C C85G | ≤ -4.2 |
| C35A G59U C69G | -2.14 |
| C32U G46U C103G U104G A107C G140C | ≤ -4.2 |
| U31A C43U U44G G62A G71A U90G A91C | ≤ -4.2 |
| C35G C63A C93U | -4.16 |
| G34A G84A C95G | -0.00509 |
| C35U A49G U53A C87U A89C C95U C132A A142C | ≤ -4.2 |
| U31G G81U C87G U104G G128C | ≤ -4.2 |
| C35U C57A | 0.0108 |
| U31G C38G U101G U139C U146G | -4.03 |
| C32A G67A G83A | ≤ -4.2 |

| Variant | polymerase ribozyme fitness (log ratio) |
| --- | --- |
| U31C G94C C105A | -1.61 |
| C35U A47U U148A A150U | ≤ -4.2 |
| C32G U55A C79A C116G C149A | ≤ -4.2 |
| C35G C76U G92A C123G A137U | ≤ -4.2 |
| C32A A37C | ≤ -4.2 |
| G34A C36G C69G C76A C95G G112A | ≤ -4.2 |
| U33C | -1.48 |
| U33A | -3.29 |
| U33G | -2.4 |
| U31A A106G | 0.863 |
| C35A C54G G83A C125A | ≤ -4.2 |
| C32U G46A C51G U53C G67C G86U U101G A138U | ≤ -4.2 |
| C32G C36U C69U | ≤ -4.2 |
| C35A A60C U102G | ≤ -4.2 |
| U33C A37G C63A C87G U111G U151A | ≤ -4.2 |
| C32G A49C A52C G143U | ≤ -4.2 |
| G34A A47U G50A C63U | -2.2 |
| C32G G50A U61A G62C G71A A91U G94C A138C | ≤ -4.2 |
| U31C C116A | 1.96 |
| C32G U53C C76A | -4.09 |
| C35A A60G C87U C96A G136A U146A | -4.03 |

| Variant | polymerase ribozyme fitness (log ratio) |
| --- | --- |
| C35U A39G G84C A106G A120U G152A | ≤ -4.2 |
| U31G A52C A64U C75G U90C C99U U134G | ≤ -4.2 |
| C32A C54U C93A A110G A137G G140C | -4.17 |
| G34A U101A | -2.82 |
| U31A G58C G74C U139C U146A | ≤ -4.2 |
| G34C G50U C54A G94U C99U | ≤ -4.2 |
| C32G C87A A115C | ≤ -4.2 |
| U31G C99U U145G | -0.861 |
| U31C A49C G94U A121U | ≤ -4.2 |
| C32A C87A | ≤ -4.2 |
| C35G G88A C95U U101A G141C | -4.12 |
| C35G U55A C85U | ≤ -4.2 |
| G34C U45A G50C A52C U53A C76A G81A G92A C105G | ≤ -4.2 |
| C32G C76G G84C C118U C132G G133C | ≤ -4.2 |
| C35G C75U A91U U148C A150G | ≤ -4.2 |
| C32U U82C | -1.74 |
| C32G A41C C75U | ≤ -4.2 |
| C32U A52G U55G G94C | -3.43 |
| C32G C87U | -3.63 |
| C35U C57A U61A G67A C95A C103A C116U | ≤ -4.2 |
